Measurements from patent publication US20230002472A1 (NEURACLE GENETICS, published 2023).
Changes are numbered by the printed parent chain. In names and notes the source's numbering stands.

B1: GPD1-CKJ 49: glycosylated form of CKJ 49 (PD1 CKJ 49-His tag, expressed in HEK293F) (receptor)
chain: LDSPDRPWNPPTLSPALLVVTEGDDATFTCSFSNTSESFVLNWYRMSPSNQTDKLAAFPEDRSQPGQDSRFRVTQLPNGRDFHMSVVRARRSDSGTYLCGAISLAPKAQIKESLRAELRVTERRAEVPTAHPSPSPKPAGQFQ
notes: Soluble, glycosylated, purified on Ni-NTA; coated on the ELISA plate; also called pMaz-PD1 CKJ 49-His tag; not shown: His tag
B2: PD-1 variant No. 55 (CKJ 55), N25D/C69S/N92S/A101V, displayed on E. coli (receptor)
chain: B1 chain with L13F, A101V, K137R
notes: not shown: NlpA signal peptide / inner membrane anchor of the pMopac12-NlpA-FLAG vector; FLAG tag
B3: PD-1 variant No. 45 (CKJ 45), S36P/C69S/K107N/L114P/F142L, displayed on E. coli (receptor)
chain: B1 chain with L13F, D25N, S36P, S92N, K107N, L114P, K137R, F142L
notes: as for B2
B4: PD-1 variant No. 67 (CKJ 67), N34T/S36P/C69S/L114P, displayed on E. coli (receptor)
chain: B1 chain with L13F, D25N, N34T, S36P, S92N, L114P, K137R
notes: as for B2
B5: PD-1 variant CKJ 41Y, S36P/C69Y/L114P, displayed on E. coli (receptor)
chain: B1 chain with L13F, D25N, S36P, S69Y, S92N, L114P, K137R
notes: Made by QuikChange PCR on CKJ 41; not shown: NlpA signal peptide / inner membrane anchor of the pMopac12-NlpA-FLAG vector; FLAG tag
B6: PD-1 variant CKJ 41A, S36P/C69A/L114P, displayed on E. coli (receptor)
chain: B1 chain with L13F, D25N, S36P, S69A, S92N, L114P, K137R
notes: as for B5
B7: PD-1 variant No. 41 (CKJ 41), S36P/C69S/L114P, displayed on E. coli (receptor)
chain: B1 chain with L13F, D25N, S36P, S92N, L114P, K137R
notes: as for B2
B8: PD-1 variant No. 56 (CKJ 56), S36P/C69S/N92K/L114P/H131R, displayed on E. coli (receptor)
chain: B1 chain with L13F, D25N, S36P, S92K, L114P, H131R, K137R
notes: as for B2
B9: PD-1 variant No. 46 (CKJ 46), S36P/C69S/L114P/P132L, displayed on E. coli (receptor)
chain: B1 chain with L13F, D25N, S36P, S92N, L114P, P132L, K137R
notes: as for B2
B10: PD-1 variant No. 78 (CKJ 78), T12S/S36P/C69S/L114P, displayed on E. coli (receptor)
chain: B1 chain with T12S, L13F, D25N, S36P, S92N, L114P, K137R
notes: as for B2
B11: PD-1 variant No. 49 (CKJ 49), F13L/N25D/C69S/N92S/R137K, displayed on E. coli (receptor)
chain: B1 chain
notes: as for B2
B12: PD-1 variant CKJ 41T, S36P/C69T/L114P, displayed on E. coli (receptor)
chain: B1 chain with L13F, D25N, S36P, S69T, S92N, L114P, K137R
notes: also called APD1-CKJ 41T; pMopac12-NIpA-PD-1 CKJ 41T-FLAG; not shown: NlpA signal peptide / inner membrane anchor of the pMopac12-NlpA-FLAG vector; FLAG tag
B13: PD-1 variant No. 44 (CKJ 44), F13I/M46I/N50S/C69Y/V127A, displayed on E. coli (receptor)
chain: B1 chain with L13I, D25N, M46I, N50S, S69Y, S92N, V127A, K137R
notes: as for B2
B14: PD-1 variant No. 66 (CKJ 66), N9D/N25D/C69S/N92S/A101V, displayed on E. coli (receptor)
chain: B1 chain with N9D, L13F, A101V, K137R
notes: as for B2
B15: PD-1 variant JY101, N1S/F13I/L17M/S36P/M46I/C69T/G79R/G100V/L114P/A139L, displayed on E. coli (receptor)
chain: SDSPDRPWNPPTISPAMLVVTEGDNATFTCSFSNTPESFVLNWYRISPSNQTDKLAAFPEDRSQPGQDTRFRVTQLPNRRDFHMSVVRARRNDSGTYLCVAISLAPKAQIKESPRAELRVTERRAEVPTAHPSPSPRPLGQFQ
notes: From the secondary library on CKJ 41T; also called APD1-JY 101; not shown: NlpA signal peptide / inner membrane anchor of the pMopac12-NlpA-FLAG vector; FLAG tag
B16: PD-1 variant CKJ 41G, S36P/C69G/L114P, displayed on E. coli (receptor)
chain: B1 chain with L13F, D25N, S36P, S69G, S92N, L114P, K137R
notes: as for B5
B17: PD-1 variant No. 50 (CKJ 50), F13L/N25D/C69S/R88K/N92S/A125S, displayed on E. coli (receptor)
chain: B1 chain with R88K, A125S, K137R
notes: as for B2
B18: PD-1 variant No. 52 (CKJ 52), F13I/M46I/C69Y, displayed on E. coli (receptor)
chain: B1 chain with L13I, D25N, M46I, S69Y, S92N, K137R
notes: as for B2
B19: PD-1_LDSS variant, F13L/N25D/C69S/N92S, displayed on E. coli (receptor)
chain: B1 chain with K137R
notes: Made by QuikChange PCR on the CKJ 49 vector; not shown: NlpA signal peptide / inner membrane anchor of the pMopac12-NlpA-FLAG vector; FLAG tag

Assays:
[1] = target: T1, tetrameric human PD-L1 (PD-L1-streptavidin-His tag) (human, UniProt Q9NZQ7 19-238, Alexa-488 label (labelled form used in Example 3 ELISA and in all flow cytometry)); test: ELISA, PD-1 protein coated at 200 ng/well, PD-L1 tetramer, anti-streptavidin-HRP
T1 construct: range 19-238; Expressed in HEK293F, purified on Ni-NTA; both are kept as one molecule; also called PD-L1 tetramer; tetrameric PD-L1-streptavidin; not shown: GS linker between PD-L1 and streptavidin; streptavidin fused at the C-terminal of PD-L1 to induce tetramerization; His tag
T1 sequence (Q9NZQ7 19-238): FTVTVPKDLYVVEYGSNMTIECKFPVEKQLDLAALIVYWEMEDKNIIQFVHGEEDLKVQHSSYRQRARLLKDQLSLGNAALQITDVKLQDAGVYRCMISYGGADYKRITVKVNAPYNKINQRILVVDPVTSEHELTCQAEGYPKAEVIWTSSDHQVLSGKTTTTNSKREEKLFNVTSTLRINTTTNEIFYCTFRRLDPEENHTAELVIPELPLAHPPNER

[2] = target: T1, tetrameric human PD-L1 …; test: flow cytometry of E. coli spheroplasts, 12.5 nM tetrameric PD-L1-Alexa488
[3] = target: T1, tetrameric human PD-L1 …; test: flow cytometry of E. coli spheroplasts with tetrameric PD-L1-Alexa488

Binder	binding result [2]	binding result [3]	further results
B1			binding result [1]: binds
B2	binds		
B3	binds		
B4	binds		
B5		binds	
B6		binds	
B7		binds	
B8	binds		
B9	binds		
B10	binds		
B11	binds		
B12	binds		
B13	binds		
B14	binds		
B15		binds	
B16		binds	
B17	binds		
B18	binds		
B19		binds	
